In patent US20250074943A1 (Amgen, published 2025):
Bridge positions count the residues as written; N and C are the ends. Primed or numbered codes have the meaning given here. Ends that are not written are not given here. K(PEG4-DBCO-FEA) = Lys whose side chain carries PEG4-DBCO conjugated to fluoroethylazide (FEA); Ttds″ = trioxatridecan-succinamic acid linker

B1: PepSP1538 (peptide)
peptide: Ac-AETVEFWWCNGNSENWTCTWGG-{Ttds″-K(PEG4-DBCO-FEA)-NH2}
modifications: disulfide 9-18 (inferred)
notes: also called monomeric Fluoroethylazide (FEA) derivative of PepSP1462
B2: PepSP1581 (peptide)
peptide: Ac-AETVEFWWCNGNSENWTCTWGG-{Ttds″-K(PEG3)}
modifications: disulfide 9-18 (inferred); also: dimer linked via PEG4-DBCO-FEA
notes: also called dimeric FEA derivative of PepSP1487
B3: PepSP1582 (peptide)
peptide: Ac-AETVEFWWCNGNSENWTCTWGG-{Ttds″-K(PEG4-PEG3)}
modifications: disulfide 9-18 (inferred); also: dimer linked via PEG4-DBCO-FEA
notes: also called dimeric FEA derivative of PepSP1488
B4: PepSP1583 (peptide)
peptide: Ac-AETVEFWWCNGNSENWTCTWGG-{Ttds″-K(Ttds-Ttds-PEG3)}
modifications: disulfide 9-18 (inferred); not fully specified; printed as [Ac-AETVEFWWCNGNSENWTCTW-GG-Ttds-K(Ttds-Ttds-PEG3)]2-PEG4-DBCO-; also: dimer linked via PEG4-DBCO-FEA
notes: also called dimeric FEA derivative of PepSP1489

molecular target: T1, recombinant DLL3 ectodomain (rhDLL3-Fc) (human, UniProt Q9NYJ7 27-492, biotinylated (NHS-LC-LC-biotin) in the BLI and SPR assays); assay: phage ELISA on rDLL3-Fc
T1 construct: also called rDLL3-Fc; recombinant human DLL3 (rDLL3); not shown: Fc part
T1 sequence: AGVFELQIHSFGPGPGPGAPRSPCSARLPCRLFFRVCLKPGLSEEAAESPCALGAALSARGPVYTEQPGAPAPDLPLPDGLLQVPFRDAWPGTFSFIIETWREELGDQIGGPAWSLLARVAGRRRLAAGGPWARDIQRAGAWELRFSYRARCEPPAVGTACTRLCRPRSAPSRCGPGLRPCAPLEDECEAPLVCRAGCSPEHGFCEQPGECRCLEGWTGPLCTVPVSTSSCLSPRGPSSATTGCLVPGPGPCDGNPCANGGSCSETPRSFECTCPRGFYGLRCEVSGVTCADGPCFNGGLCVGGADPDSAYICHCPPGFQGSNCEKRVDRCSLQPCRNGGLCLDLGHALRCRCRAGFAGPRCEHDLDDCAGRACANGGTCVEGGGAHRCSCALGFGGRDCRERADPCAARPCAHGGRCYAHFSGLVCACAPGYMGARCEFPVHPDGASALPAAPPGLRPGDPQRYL

Row | Binder | binding result
1 | AETVEFYGCSVNADGWTCSW (not shown: M13 pIII coat protein) [SEQ ID NO 58] | binds
2 | AETVEFYGCYGEQEQWTCLW (not shown: M13 pIII coat protein) [SEQ ID NO 59] | binds
3 | AETVEFYGCQYYGWDYTCAW (not shown: M13 pIII coat protein) [SEQ ID NO 60] | binds
4 | AETVEFYGCWGNYNDYTCSW (not shown: M13 pIII coat protein) [SEQ ID NO 61] | binds
5 | AETVEFETCWYLYGREWCVG (not fully specified (bridges); cysteine pairing not given here, not shown: M13 pIII coat protein) [SEQ ID NO 62] | binds
6 | AETVEFMRCYPWWYGPMCVR (not fully specified (bridges); cysteine pairing not given here, not shown: M13 pIII coat protein) [SEQ ID NO 63] | binds
7 | AETVEFWGCLGMGYDRTCWW (not fully specified (bridges); cysteine pairing not given here, not shown: M13 pIII coat protein) [SEQ ID NO 64] | binds
8 | AETVEFWTCWTVYGKSSCWD (not fully specified (bridges); cysteine pairing not given here, not shown: M13 pIII coat protein) [SEQ ID NO 65] | binds
9 | AETVEFYGCWWDAYGSTCTW (not fully specified (bridges); cysteine pairing not given here, not shown: M13 pIII coat protein) [SEQ ID NO 66] | binds
10 | AETVEFYGCDLWKGWTVCGY (not fully specified (bridges); cysteine pairing not given here, not shown: M13 pIII coat protein) [SEQ ID NO 67] | binds
11 | AETVEFRYCTHTQTYVQCQD (not fully specified (bridges); cysteine pairing not given here, not shown: M13 pIII coat protein) [SEQ ID NO 68] | binds
12 | AETVEFWGCNLDWYGWTCWW (not fully specified (bridges); cysteine pairing not given here, not shown: M13 pIII coat protein) [SEQ ID NO 69] | binds
13 | AETVEFWSCVVYGDNWTCSS (not fully specified (bridges); cysteine pairing not given here, not shown: M13 pIII coat protein) [SEQ ID NO 70] | binds
14 | AETVEFWSCQLGSGWWTCAW (not fully specified (bridges); cysteine pairing not given here, not shown: M13 pIII coat protein) [SEQ ID NO 71] | binds
15 | AETVEFWTCWETTEGYGCNW (not fully specified (bridges); cysteine pairing not given here, not shown: M13 pIII coat protein) [SEQ ID NO 72] | binds
16 | AETVEFWGCTGGAWEYTCWW (disulfide 9-18 (inferred); not fully specified (C-terminus), not shown: M13 pIII coat protein) [SEQ ID NO 73] | binds
17 | AETVEFYGCSVTWGGYTCTW (disulfide 9-18 (inferred); not fully specified (C-terminus), not shown: M13 pIII coat protein) [SEQ ID NO 74] | binds
18 | AETVEFYNCWYKMGWYVCWS (disulfide 9-18 (inferred); not fully specified (C-terminus), not shown: M13 pIII coat protein) [SEQ ID NO 75] | binds
19 | AETVEFCRAYSNWFYIC (disulfide 7-17 (inferred); not fully specified (C-terminus), not shown: M13 pIII coat protein) [SEQ ID NO 76] | binds

molecular target: T1, recombinant DLL3 ectodomain (rhDLL3-Fc); assay: SPR (Biacore), biotinylated rhDLL3-Fc on SA chip

Row | Binder | Kd | koff | kon
20 | Ac-AETVEFWWCNGNSENWTCTWGG-{Ttds-K(PEG4-DBCO)-NH2} (disulfide 9-18 (inferred), also called PspSP1462) [PepSP1462] | 6.3 nM | 0.0014 s⁻¹ | 230000 M⁻¹ s⁻¹
21 | Ac-AETVEFWWCNGNSENWTCTWGG-{Ttds″-K(PEG3)} (disulfide 9-18 (inferred); also: dimer of two copies, carries PEG4-DBCO, also called PspSP1487) [PepSP1487] | 5.5 nM | 0.00042 s⁻¹ | 76000 M⁻¹ s⁻¹
22 | Ac-AETVEFWWCNGNSENWTCTWGG-{Ttds″-K(PEG4-PEG3)} (disulfide 9-18 (inferred); also: dimer linked via PEG4-DBCO, also called PspSP1488) [PepSP1488] | 2.6 nM | 0.00031 s⁻¹ | 120000 M⁻¹ s⁻¹
23 | Ac-AETVEFWWCNGNSENWTCTWGG-{Ttds″-K(Ttds-Ttds-PEG3)} (disulfide 9-18 (inferred); also: dimer linked via PEG4-DBCO, also called PspSP1489) [PepSP1489] | 3.3 nM | 0.00037 s⁻¹ | 110000 M⁻¹ s⁻¹

molecular target: T1, recombinant DLL3 ectodomain (rhDLL3-Fc); assay: SPR off-rate, single point (300 nM peptide), biotinylated rhDLL3-Fc on SA chip
Experimental: The off-rate screening of the peptides was done using a Biacore T200 instrument (Cytiva, Sweden). […] Peptides were diluted at 300 nM in PBS-P+1× buffer (Cytiva, Sweden) supplemented with 1% DMSO and 0.1% BSA, then injected over the ligand for five minutes at 30 μl/min, finally dissociation allowed for 1 h. Sensorgrams were analyzed by Biacore T200 Evaluation Software 3.0 (Cytiva, Sweden): specific binding was obtained by subtracting unspecific binding to naked biosensors and a zero analyte concentration made of binding assay buffer (double referencing). Kinetic parameters of koff were measured using a global fitting according to 1:1 Langmuir binding isotherm equation.

Row | Binder | koff
24 | B1 | 0.0039 s⁻¹
25 | B2 | 3.4e-05 s⁻¹
26 | B3 | 3.6e-05 s⁻¹
27 | B4 | 3.2e-05 s⁻¹

molecular target: T2, human DLL3 expressed on the surface of cells (human, UniProt Q9NYJ7 27-618); assay: phage cell ELISA/FACS on DLL3-expressing cells;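 note: phages incubated 1 h at room temperature with cells overexpressing human DLL3, read by flow cytometry fluorescence, then fixed-cell ELISA with anti-M13-HRP at A370 nm, parental cells alongside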
T2 construct: Stably transfected CHO or HEK293 cells; also called huDLL3; hDLL3
T2 sequence: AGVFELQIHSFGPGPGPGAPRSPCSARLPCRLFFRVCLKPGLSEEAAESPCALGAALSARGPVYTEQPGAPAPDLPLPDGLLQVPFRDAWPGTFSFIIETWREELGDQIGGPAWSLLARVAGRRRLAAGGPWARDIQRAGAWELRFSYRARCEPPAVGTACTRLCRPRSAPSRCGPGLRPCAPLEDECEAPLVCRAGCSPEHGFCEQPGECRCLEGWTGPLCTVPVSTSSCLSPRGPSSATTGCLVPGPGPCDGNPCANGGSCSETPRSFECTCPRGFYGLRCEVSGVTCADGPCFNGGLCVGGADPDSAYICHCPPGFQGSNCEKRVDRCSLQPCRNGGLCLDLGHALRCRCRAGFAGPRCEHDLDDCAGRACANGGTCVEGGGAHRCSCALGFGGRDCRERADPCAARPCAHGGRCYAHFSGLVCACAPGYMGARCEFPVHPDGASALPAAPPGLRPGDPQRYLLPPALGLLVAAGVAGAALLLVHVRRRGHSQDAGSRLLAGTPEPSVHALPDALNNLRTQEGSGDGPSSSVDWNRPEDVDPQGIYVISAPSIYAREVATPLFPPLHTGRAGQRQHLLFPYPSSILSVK
Experimental: The pools of phages were also screened for their binding to cells overexpressing human DLL3 on their surface. Cells were detached, counted and re-suspended at 1.8×10⁶ cell/ml in FACS buffer containing 2% FBS. Pre-blocked phages were then added to the cells and incubated for 1 hr at room temperature. […] Cells were then washed and re-suspended into FACS buffer. Fluorescence was acquired using a flow cytometer (FACS Canto/Becton Dickinson).
Phage clones with signal higher than four-fold above the background were further tested for their binding to DLL3 on the surface of cells expressing DLL3 by cell ELISA. Briefly, parental cells and cells overexpressing DLL3 were plated on 96 well plate the day before the assay. The cells were then fixed and washed before the addition of pre-blocked phages as previously described. The cells were then washed and anti-M13-HRP was added. The signal was measured using a Multiskan Ascent (Thermo) ELISA reader at A370 nm.

Row | Binder | binding result
28 | AETVEFYGCSVNADGWTCSW (not shown: M13 pIII coat protein) [SEQ ID NO 58] | binds
29 | AETVEFYGCYGEQEQWTCLW (not shown: M13 pIII coat protein) [SEQ ID NO 59] | binds
30 | AETVEFYGCQYYGWDYTCAW (not shown: M13 pIII coat protein) [SEQ ID NO 60] | binds
31 | AETVEFYGCWGNYNDYTCSW (not shown: M13 pIII coat protein) [SEQ ID NO 61] | binds
32 | AETVEFETCWYLYGREWCVG (not fully specified (bridges); cysteine pairing not given here, not shown: M13 pIII coat protein) [SEQ ID NO 62] | binds
33 | AETVEFMRCYPWWYGPMCVR (not fully specified (bridges); cysteine pairing not given here, not shown: M13 pIII coat protein) [SEQ ID NO 63] | binds
34 | AETVEFWGCLGMGYDRTCWW (not fully specified (bridges); cysteine pairing not given here, not shown: M13 pIII coat protein) [SEQ ID NO 64] | binds
35 | AETVEFWTCWTVYGKSSCWD (not fully specified (bridges); cysteine pairing not given here, not shown: M13 pIII coat protein) [SEQ ID NO 65] | binds
36 | AETVEFYGCWWDAYGSTCTW (not fully specified (bridges); cysteine pairing not given here, not shown: M13 pIII coat protein) [SEQ ID NO 66] | binds
37 | AETVEFYGCDLWKGWTVCGY (not fully specified (bridges); cysteine pairing not given here, not shown: M13 pIII coat protein) [SEQ ID NO 67] | binds
38 | AETVEFRYCTHTQTYVQCQD (not fully specified (bridges); cysteine pairing not given here, not shown: M13 pIII coat protein) [SEQ ID NO 68] | binds
39 | AETVEFWGCNLDWYGWTCWW (not fully specified (bridges); cysteine pairing not given here, not shown: M13 pIII coat protein) [SEQ ID NO 69] | binds
40 | AETVEFWSCVVYGDNWTCSS (not fully specified (bridges); cysteine pairing not given here, not shown: M13 pIII coat protein) [SEQ ID NO 70] | binds
41 | AETVEFWSCQLGSGWWTCAW (not fully specified (bridges); cysteine pairing not given here, not shown: M13 pIII coat protein) [SEQ ID NO 71] | binds
42 | AETVEFWTCWETTEGYGCNW (not fully specified (bridges); cysteine pairing not given here, not shown: M13 pIII coat protein) [SEQ ID NO 72] | binds
43 | AETVEFWGCTGGAWEYTCWW (disulfide 9-18 (inferred); not fully specified (C-terminus), not shown: M13 pIII coat protein) [SEQ ID NO 73] | binds
44 | AETVEFYGCSVTWGGYTCTW (disulfide 9-18 (inferred); not fully specified (C-terminus), not shown: M13 pIII coat protein) [SEQ ID NO 74] | binds
45 | AETVEFYNCWYKMGWYVCWS (disulfide 9-18 (inferred); not fully specified (C-terminus), not shown: M13 pIII coat protein) [SEQ ID NO 75] | binds
46 | AETVEFCRAYSNWFYIC (disulfide 7-17 (inferred); not fully specified (C-terminus), not shown: M13 pIII coat protein) [SEQ ID NO 76] | binds
